The values below come from a protein production outcome set (Wang et al. 2014).

A short description of this data set: label from the status in PepcDB records.

“MEYKPIRKVVSGNYAAAYAALHARVQVVAAYPITPQTSIIEKIAEFIANGEADIQYIPVESEHSAMAACIGASATGARTFTATSAQGLALMHEMLHWAAGARLPIVMVDVNRAMAPPWSVWDDQTDSLSQRDTGWMQFYAENNQEVYDGVLMAYKVAETVNVPAMVVESAFILSHTYDVVEMIPQELVDEFLPPRKPLYSLANFDEPIAVGALATPNDYYEFRYKLAKAHEEAKKVIKEVGKEFGERFGRDY”: the protein production result is reported as “failed”.

For the sequence “MEYSSIANGLFLISDINSDAAATISNVFDHTSMNTADLENMPTEKPVEYTKSPGHYYIVLPGQPNKYTAKIIINQLNASGETSDIATTTATSAYTTGLFTISAKYLVDDAFVINAGTGQEMTLTRIMDMDGSDYETFPVDVNQGPQTFTIVPQDQLLHATVNYKFADGTEAAPSAKLSGYAGLTTVSAKSPTISGYTPDQKEVAVAFAPTEKTYTVTYKANPTTPTATESSASSSTADEATTFTPFKIYGKRALYTYKNATFKKNQRVSHYAQKSKAYAPIFEVVGTAKSTSGHLRYKLADGTYVTANADYVGALYWQGMYQKLYVTNPKGTNAYDGTRFAQATKQKHYRQGTALTVVKQTQVGQTTRYELTNGTYVTGNKQWVSPTKPRLVKQVKVKRTIRLYRDVNGSTFIKRIKPGKTLTVTGWDYSHGRNPRLSGTLRYRVAGGYITANRQFVVAN”, the protein production result is recorded as “failed”.

Turning to “MEYVAFSVAVIILLGLLFNRVFTRARLPGILGMLILGILIGPHGLNLISKSIMDISPDLRVIALIIILLRAGFGINLESLRKVGMTAVKMSFIPDVFEGLAVMVASHYILGLPIIEAGILGFVIAAVSPAVIVPQMLSFIERRMGTAKGIPTIILTGASVDDVVSITLFSVFLGIYQGQQVNLLVEAIGVPLSILTGITGGLALGLALVYLFRRFEIRNTEKTLIILGAAILLKNMGDLISTYLPIAALVGVMVVGLVILERMPETGLKLSEKFNKVWIFAEILLFVLVGAQVDVRLIFHVGLLGLAVITAGLMVRSIGVLLSLKGTDLNLKEKVFCISAYIPKATVQAAIGAIPLAAGVAAGETILAMAVLAILFTAPLGSLAVKWTGERFLEVERGN”, the protein production entry is reported as “failed”.

As to “MFADRLFNAMERNEPAPGMVLVAAPSMESEDFARSVILIIEHSEYATFGVNLASRSDVAVFNVIPEWVPCVTKPQALYIGGPLNQQSVVGVGVTAQGVDAARVDNLTRLANRLVMVNLGADPEEIKPLVSGMRLFAGHAEWAPGQLAQEIENGDWFVAPALPSDVTAPGSVDVWGDVMRRQPMPLPLYSTFPVNVGEN”, the protein production result is “not failed”.

Regarding “MFADTCGFMNRSPEHIFGSPEIDYSDVSTGYLEDALIESGERSKRRRLLFEDPSKSFNDDDSQNDWGLHESYSCLNSQFVTPHVNTGERISGVSYCQETISNVYESPDTSVSYDKIYVREKSPTEPSSSNCGNKNKRLITKLVYPFGLVKPGGRENDVTLNDINERILMAPSRPIRHPVGDFASRPCVSGRGPGLSGKAVVALTKIQTQGRGTITIIRTKG”, the protein production entry is given as “failed”.

“MFALIILISAIIFGIISYFTGKHAKEVSAVLSGILLLEIIAYSIMRFSSYSGGFISRYSVVISSSLGLSFSIAVSGLTDALLILSAVVILIAVLITDRNYGSAFFGLEMTVLAGLIGLLISRDFLFFYIFWEVVLIPVYFMIGRYGIGNKNSISLKFFVYTHIGSVFILLSIFTLYSQSYVYLASPTFEIGPLMSILPKLSLFYKGFVIFGFLFGFLVKMPSFPIHSWLPDSYYSAPYPGSVILAGAISMMGGYGLFGIMIESYKALDVYVLYLLIALGIISLIYFALTAMFQRNIKKMMAFASASAMGFVTISFAASILETSGIDYSVRALEAAGGMFQIVAHGLIMSLVFSALYYISRNTKTDSVYGLGGIYREAPKLASLTLVGLLASLGLPGFAGFIGEFSIVVGVFQTVSWYIFLIIFGMIITASYHIWTAQRSLYGPYNENLGFIRDINSGEFMILIFLVLVIFVLGIYPNLIFANLVNYTNTSLSISVEPALRTNVVAFLEAHVFEVMQ”: the protein production entry is given as “failed”.
